“Also recorded” adds a separate entry of the source.
Assays:
CLP-induced sepsis [1] = test: CLP sepsis survival; type: in vivo, Balb/C mice
Procedure: Experimental sepsis was induced in Balb/C mice via cecal ligation and puncture (CLP) as previously described,[30],[37]. […] Briefly, mice were anesthetized intramuscularly with ketamine (75 mg/kg, Henry Schein Animal Health, Dublin, Ohio) and xylazine (10 mg/kg, Sigma-Aldrich) before a midline abdominal incision was made in the lower left abdomen. The cecum was ligated with a 4–0 silk suture at 50% of its length from the distal end, and punctured twice with a 21-gauge needle to induce moderate to severe sepsis. The cecum was returned to the abdominal cavity, and the incision was closed in layers. Approximately 30 min post-CLP, animals received imipenem/cilastatin (0.5 mg/mouse, Primaxin, Merck & Co., Inc.) and 1.0 mL of sterile saline for fluid resuscitation. Animals were randomized to control vehicle and experimental groups, administered P2 or P2–1 intraperitoneally at indicated doses and time points, and monitored for survival rates. To elucidate P2–1’s protective mechanisms, a separate group of Balb/C mice underwent CLP and received P2–1 (1.0 mg/kg) at 2 h and 20 h post-CLP. At 24 h post-CLP, animals were euthanized to collect blood and measure serum cytokines and chemokines using murine Cytokine Antibody Arrays.
All data were first assessed for normality using the Shapiro-Wilk test before applying the appropriate statistical analyses. All data are presented as mean ± standard error of the mean (SEM) unless otherwise specified. For comparison among multiple groups with non-normal (skewed) distribution, the Kruskal-Wallis ANOVA test followed by Dunn’s post-hoc test was used to evaluate statistical differences. Survival curves were analyzed using Kaplan-Meier method and compared using the nonparametric log-rank (Mantel-Cox) test. Statistical significance was defined as a P value less than 0.05.

water solubility = type: physicochemical
TN peptides (P1-P10) = test: dot blot epitope mapping of anti-TN mAbs with TN peptides P1-P10; type: binding, human; conditions: peptides 0.1 μg in 2.5 μl on nitrocellulose; mAb 1.0 μg/mL; chemiluminescence
Procedure: A library of ten synthetic peptides (P1-P10, fig. S1B) corresponding to C-terminus portion of TN protein (fig. S1A) were spotted (0.1 μg in 2.5 μl) onto nitrocellulose membranes (Thermo Scientific, Cat No. 88013). Membranes were blocked with 5% milk in PBS-T (PBS with 0.1% Tween-20) and then incubated with anti-TN monoclonal antibodies (mAb8 or mAb9, 1.0 μg/mL). After washing, membranes were incubated with HRP-conjugated goat anti-mouse IgG (Jackson ImmunoResearch), and signals were detected using chemiluminescence as described,[30].

CLP-induced sepsis [2] = conditions: anti-TN mAbs; mice; cited from earlier work
[3] = target: T1, P5 peptide of tetranectin (Homo sapiens, UniProt P05452); test: far-Western, overlay or dot blot; synthetic TN peptides P1-P10 spotted (0.1 μg in 2.5 μl) on nitrocellulose, blocked with 5% milk in PBS-T; mAb8 or mAb9 at 1.0 μg/mL; HRP goat anti-mouse IgG, chemiluminescence; conditions: both partners purified
T1 construct: synthetic peptide from the C-terminal portion (CRD) of human tetranectin; S1A, S1B; source: synthetic peptide
T1 chain: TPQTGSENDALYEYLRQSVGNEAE

human PBMCs [4] = test: RNA-seq of HMGB1-stimulated PBMCs; type: cell-based; conditions: HMGB1 stimulation alone
Procedure: (§1) Human blood was purchased from the New York Blood Center (Long Island City, NY, USA), and PBMCs were isolated by density gradient centrifugation through Ficoll (Ficoll-Paque PLUS) as previously described,[30]. PBMCs were cultured in RPMI-1640 supplemented with 10% human serum, 2 mM L-glutamine, 100 U/mL penicillin, and 100 μg/mL streptomycin (all from Invitrogen). For experiments, PBMCs were stimulated with recombinant human HMGB1 (0.5 or 2.0 μg/ml) for 16 hours, either alone or in combination with P2–1 at 5.0 or 10.0 μg/ml. Cell-free supernatants were collected for analysis of cytokines/chemokines levels by Cytokine Antibody Arrays, or pCTS-L levels by Western blotting analysis as described.
Total RNA was isolated from human PBMCs stimulated with HMGB1 in the absence or presence of P2–1 (5.0 or 10.0 μg/ml) using the RNeasy Mini Kit (Qiagen) according to the manufacturer’s instructions. RNA quantity and quality were assessed using a NanoDrop spectrophotometer and an Agilent Bioanalyzer. cDNA libraries were prepared using the TruSeq RNA Library Prep Kit v2 (Illumina) and sequenced on an Illumina NovaSeq 6000 platform to generate 100 bp paired-end reads. Raw sequencing reads were quality-checked using FastQC, trimmed with Trimmomatic, and aligned to the human reference genome (GRCh38) using HISAT2. Gene counts were quantified using StringTie and DESeq2 was used for differential gene expression analysis. Volcano plots and heatmaps were generated using ggplot2 and pheatmap packages in R, respectively. Genes with an adjusted P-value < 0.05 and a |log2-fold change| > 1 were considered differentially expressed.

human PBMCs [5] = test: HMGB1-induced cytokine/chemokine secretion, Cytokine Antibody Arrays; type: cell-based; conditions: HMGB1 0.5 or 2.0 μg/ml alone, 16 h
Procedure: as §1
Levels of cytokines and chemokines in mouse serum and joint tissue lysates, or human PBMC culture supernatants were determined using murine or human Cytokine Antibody Arrays (e.g., Cat. No. M0308003 or Cat. No. AAH-CYT-3–4, RayBiotech Inc., Norcross, GA, USA) as previously described,[30],[86],[87]. Serum samples were collected from mice at 24 h post-CLP. The soft tissue of the hindpaw and ankle joints was carefully collected using a previously described protocol. Briefly, 0.5 g of fresh soft tissue was cut into 3 mm pieces, and mixed with 400 μL of a hypertonic solution (500 mL PBS with 4.5 g NaCl and 2× protease inhibitor cocktail) in a 10 mL syringe. Mechanical extrusion, involving 30 rapid back-and-forth movements of the plunger, was then performed. The expelled extracellular fluid was collected, immediately aliquoted, and stored at −20°C until analysis. Cell-conditioned medium was collected from PBMC cultures after 16 h of stimulation. Arrays were performed according to the manufacturer’s protocol, followed by chemiluminescent detection and densitometric quantification as previously described,[30].

human PBMCs [6] = test: HMGB1-induced pCTS-L secretion, Western blot; type: cell-based; conditions: HMGB1 alone
Procedure: as §1
Cell-conditioned medium from human PBMC cultures was collected, and concentrated using Amicon Ultra Centrifugal Filters. Equal volumes of conditioned medium, representing equivalent numbers of cells, were resolved on sodium dodecyl sulfate (SDS)-polyacrylamide gels and transferred to polyvinylidene difluoride (PVDF) membranes. After blocking with 5% nonfat milk in Tris-buffered saline with 0.1% Tween 20 (TBST), membranes were probed with a home-made primary monoclonal antibody against pCTS-L (e.g., mAb2, 1:1000) overnight as previously described. After washing, membranes were incubated with a horseradish peroxidase-conjugated secondary antibody. Protein bands were visualized using enhanced chemiluminescence (ECL) substrate (Pierce) and detected with a chemiluminescence imaging system (e.g., Bio-Rad ChemiDoc MP). The relative levels of specific proteins were determined using the UN-SCAN-IT Gel Analysis Software Version 7.1 (Silk Scientific Inc., Orem, UT, USA) and expressed in arbitrary units (AU).

human PBMCs [7] = conditions: TN; cited from earlier work
Description: To validate these RNA-seq findings, we quantified HMGB1-induced cytokine/chemokine protein levels using Cytokine Antibody Arrays.

Molecule: 55-KVHMKCFLAFTQTKTF-70 [P2]
- survival (CLP-induced sepsis [1]; P2 5.0 mg/kg at 2 h and 24 h post-CLP, 5 mg/kg): significantly increased survival rates in both male and female mice; also recorded: significantly increased animal survival
- animal survival (# of Survivors) (CLP-induced sepsis [1]; P2 5.0 mg/kg i.p. at 2 h and 24 h post-CLP, male and female mice, P < 0.05 vs. vehicle): 60%
- water solubility (water solubility): poor water solubility

B1: anti-tetranectin monoclonal antibody mAb8 (antibody, V domains shown)
VH: DVNLVESGGGLVKLGGSLKLSCADSGFTFSSYYMSWVRQTPEKRLELVAAINSNGGRTYYPDTVKGRFTISRDNAKNTLYLQMSSLKSEDTALYYCARQGKNGLDYWGQGTSVTVSS
VL: DIQMTQTTSSLSASLGDRVTISCRASQDISNHLNWYQQKPDGTIKLLIYYTSRLHSGVPSRFSGSGSGTDFSLSISNLEQEDIATYFCQQGKTLPPTFGGGTKLEIK
notes: mouse monoclonal antibody; also called protective anti-TN mAb; source: generated in Balb/C and C57BL/6 mice as previously described [6,30]; hybridoma
- TN peptide bound in dot blot (TN peptides (P1-P10)): targeted P5; also recorded: binds P5
- effect on septic survival/lethality (CLP-induced sepsis [2]): protected mice against sepsis
- binding result [3]: binds

B2: HMGB1: recombinant human HMGB1 expressed in E. coli; PBMC stimulus and SPR target (protein)
chain: MGKGDPKKPRGKMSSYAFFVQTCREEHKKKHPDASVNFSEFSKKCSERWKTMSAKEKGKFEDMAKADKARYEREMKTYIPPKGETKKKFKDPNAPKRPPSAFFLFCSEYRPKIKGEHPGLSIGDVAKKLGEMWNNTAADDKQPYEKKAAKLKEKYEKDIAAYRAKGKPDAAKKGVVKAEKSKKKKEEEEDEEDEEDEEEEEDEEDEDEEEDDDDE
- gene expression of inflammatory cytokines and chemokines (human PBMCs [4]): profoundly upregulated many inflammatory cytokines
- cytokine and chemokine protein levels (e.g., TNF, IL-6, IL-10, CXCL5, CXCL1, CXCL8, CCL2, CCL7) (human PBMCs [5]): significantly increased protein levels of various cytokines
- pCTS-L expression and secretion (human PBMCs [6]): induced pCTS-L expression and secretion in human immune cells

B3: TN: full-length human tetranectin (residues 1-181) (protein, UniProt P05452 22-202, looked up)
Tetranectin: EPPTQKPKKIVNAKKDVVNTKMFEELKSRLDTLAQEVALLKEQQALQTVCLKGTKVHMKCFLAFTQTKTFHEASEDCISRGGTLGTPQTGSENDALYEYLRQSVGNEAEIWLGLNDMAAEGTWVDMTGARIAYKNWETEITAQPDGGKTENCAVLSGAANGKWFDKRCRDQLPYICQFGIV
- HMGB1-induced cytokines (e.g., IL-6) and chemokines (e.g., MCP-1) (human PBMCs [7]): did not affect HMGB1-induced cytokines (e.g., IL-6) and chemokines (e.g., MCP-1)

Source: PMC12458545, “Repurposing a Detrimental Antibody Epitope as Targeted Therapeutics for Sepsis and Rheumatoid Arthritis” (Research Square, 2025)
